# According to patent US20190106460A1 (published 2019):
# Values joined by “and” are separate entries in the source; they are usually repeats but may differ in a detail not shown here. Equal entries are not always repeated. Starred links: 1 amine or outer side, 2 acyl side, 3 side chain; linkers in the order of their positions; H or OH if unused. Non-standard residues stand in square brackets, D forms with d. *: point of attachment. Tyr(Me) = O-methyl-L-tyrosine, COc1ccc(C[C@H](N[*:1])C(=O)[*:2])cc1; Phe(4-NO2) = N[C@@H](Cc1ccc([N+](=O)[O-])cc1)C(=O)O; Benzenesulfonyl(4-OMe) = COc1ccc(S(=O)(=O)*)cc1; Y(Me) = COc1ccc(C[C@H](N[*:1])C(=O)[*:2])cc1; 4‑(BuO)‑PhSO2 = CCCCOc1ccc(S(=O)(=O)*)cc1; E(OMe) = COC(=O)CC[C@H](N[*:1])C(=O)[*:2]; E(Me) = COC(=O)CC[C@H](N[*:1])C(=O)[*:2]; Phe(3-Cl) = N[C@@H](Cc1cccc(Cl)c1)C(=O)O; Phe(4-Br) = N[C@@H](Cc1ccc(Br)cc1)C(=O)O; Phe(3-F) = N[C@@H](Cc1cccc(F)c1)C(=O)O; Phe(4-F) = N[C@@H](Cc1ccc(F)cc1)C(=O)O; 1Nal = N[C@@H](Cc1cccc2ccccc12)C(=O)O; Glutaryl = O=C(CCCC(=O)[*:2])[*:1]; Suc = O=C(CCC(=O)[*:2])[*:1]; Tos = Cc1ccc(S(=O)(=O)*)cc1; βE = a beta form of Glu
# B1: Ts-dEGF(3Cl)WE-NH2 (peptide)
# peptide: Tos-[dD]EG[Phe(3-Cl)]WE-NH2
# SMILES: Cc1ccc(S(=O)(=O)N[C@H](CC(=O)O)C(=O)N[C@@H](CCC(=O)O)C(=O)NCC(=O)N[C@@H](Cc2cccc(Cl)c2)C(=O)N[C@@H](Cc2c[nH]c3ccccc23)C(=O)N[C@@H](CCC(=O)O)C(N)=O)cc1
# notes: also called UBP034
# B2: 4-(MeO)-PhSO2-dEGF(3F)WE-NH2 (peptide)
# peptide: {Benzenesulfonyl(4-OMe)}-[dD]EG[Phe(3-F)]WE-NH2
# SMILES: COc1ccc(S(=O)(=O)N[C@H](CC(=O)O)C(=O)N[C@@H](CCC(=O)O)C(=O)NCC(=O)N[C@@H](Cc2cccc(F)c2)C(=O)N[C@@H](Cc2c[nH]c3ccccc23)C(=O)N[C@@H](CCC(=O)O)C(N)=O)cc1
# notes: also called UBP022
# B3: Suc-EGFFE-NH2 (peptide)
# peptide: Suc-EGFFE-NH2
# SMILES: NC(=O)[C@H](CCC(=O)O)NC(=O)[C@H](Cc1ccccc1)NC(=O)[C@H](Cc1ccccc1)NC(=O)CNC(=O)[C@H](CCC(=O)O)NC(=O)CCC(=O)O
# notes: also called UBP002; succ-EGFFE
# B4: Suc-EG-F(4Br)-F(3F)-NH2 (peptide)
# peptide: Suc-EG[Phe(4-Br)][Phe(3-F)]-NH2
# SMILES: NC(=O)[C@H](Cc1cccc(F)c1)NC(=O)[C@H](Cc1ccc(Br)cc1)NC(=O)CNC(=O)[C@H](CCC(=O)O)NC(=O)CCC(=O)O
# B5: Suc-EGFF-NH2 (peptide)
# peptide: Suc-EGFF-NH2
# SMILES: NC(=O)[C@H](Cc1ccccc1)NC(=O)[C@H](Cc1ccccc1)NC(=O)CNC(=O)[C@H](CCC(=O)O)NC(=O)CCC(=O)O
# B6: Suc-EG-F(3F)-F(3F)-NH2 (peptide)
# peptide: Suc-EG[Phe(3-F)][Phe(3-F)]-NH2
# SMILES: NC(=O)[C@H](Cc1cccc(F)c1)NC(=O)[C@H](Cc1cccc(F)c1)NC(=O)CNC(=O)[C@H](CCC(=O)O)NC(=O)CCC(=O)O
# B7: Suc-QGYF-NH2 (peptide)
# peptide: Suc-QGYF-NH2
# SMILES: NC(=O)CC[C@H](NC(=O)CCC(=O)O)C(=O)NCC(=O)N[C@@H](Cc1ccc(O)cc1)C(=O)N[C@@H](Cc1ccccc1)C(N)=O
# B8: Suc-EGY-F(4NO2)-NH2 (peptide)
# peptide: Suc-EGY[Phe(4-NO2)]-NH2
# SMILES: NC(=O)[C@H](Cc1ccc([N+](=O)[O-])cc1)NC(=O)[C@H](Cc1ccc(O)cc1)NC(=O)CNC(=O)[C@H](CCC(=O)O)NC(=O)CCC(=O)O
# B9: Suc-EGY-F(3F)-NH2 (peptide)
# peptide: Suc-EGY[Phe(3-F)]-NH2
# SMILES: NC(=O)[C@H](Cc1cccc(F)c1)NC(=O)[C@H](Cc1ccc(O)cc1)NC(=O)CNC(=O)[C@H](CCC(=O)O)NC(=O)CCC(=O)O
# B10: Suc-EGY-F(4F)-NH2 (peptide)
# peptide: Suc-EGY[Phe(4-F)]-NH2
# SMILES: NC(=O)[C@H](Cc1ccc(F)cc1)NC(=O)[C@H](Cc1ccc(O)cc1)NC(=O)CNC(=O)[C@H](CCC(=O)O)NC(=O)CCC(=O)O
# B11: Suc-EG-F(4Br)-F-NH2 (peptide)
# peptide: Suc-EG[Phe(4-Br)]F-NH2
# SMILES: NC(=O)[C@H](Cc1ccccc1)NC(=O)[C@H](Cc1ccc(Br)cc1)NC(=O)CNC(=O)[C@H](CCC(=O)O)NC(=O)CCC(=O)O
# B12: Suc-EGF-Y(Me)-E(OMe)-NH2 (peptide)
# peptide: Suc-EGF[Y(Me)][E(OMe)]-NH2
# SMILES: COC(=O)CC[C@H](NC(=O)[C@H](Cc1ccc(OC)cc1)NC(=O)[C@H](Cc1ccccc1)NC(=O)CNC(=O)[C@H](CCC(=O)O)NC(=O)CCC(=O)O)C(N)=O
# B13: Suc-EG-F(4NO2)-F(4NO2)-NH2 (peptide)
# peptide: Suc-EG[Phe(4-NO2)][Phe(4-NO2)]-NH2
# SMILES: NC(=O)[C@H](Cc1ccc([N+](=O)[O-])cc1)NC(=O)[C@H](Cc1ccc([N+](=O)[O-])cc1)NC(=O)CNC(=O)[C@H](CCC(=O)O)NC(=O)CCC(=O)O
# Target: T1, HisβTrCP/Skp1 and HisβTrCP/GSTSkp1 (immobilised on NTA Biacore chip) (UniProt Q9Y297 175-605; P63208 1-163)
# T1 construct: SPR: KD values from both surfaces (with or without the GST moiety) were averaged to give the apparent KD; also called βTrCP surfaces
# T1 sequence (Q9Y297 175-605, chain 1 of 2): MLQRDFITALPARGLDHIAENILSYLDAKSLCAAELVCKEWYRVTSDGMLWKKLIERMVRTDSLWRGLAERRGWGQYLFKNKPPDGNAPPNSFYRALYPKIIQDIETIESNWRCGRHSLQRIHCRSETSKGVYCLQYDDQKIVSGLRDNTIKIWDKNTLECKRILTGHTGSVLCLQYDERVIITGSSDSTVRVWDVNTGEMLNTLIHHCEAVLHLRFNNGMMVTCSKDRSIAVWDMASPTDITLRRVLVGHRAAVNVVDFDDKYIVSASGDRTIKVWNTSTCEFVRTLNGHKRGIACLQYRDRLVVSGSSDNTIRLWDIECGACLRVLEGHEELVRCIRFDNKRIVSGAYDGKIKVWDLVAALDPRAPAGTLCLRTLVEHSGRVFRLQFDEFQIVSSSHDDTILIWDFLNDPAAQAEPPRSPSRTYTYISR
# T1 sequence (P63208 whole entry, chain 2 of 2): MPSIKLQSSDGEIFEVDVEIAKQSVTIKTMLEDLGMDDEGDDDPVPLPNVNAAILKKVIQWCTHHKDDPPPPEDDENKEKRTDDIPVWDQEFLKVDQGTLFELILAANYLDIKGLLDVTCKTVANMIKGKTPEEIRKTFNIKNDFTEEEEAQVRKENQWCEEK
# Test: SPR (Biacore T200), single cycle run up to 1e-6 M, steady-state fit of the run shown; Rmax 2.093 RU, Chi² 0.0110 RU² [A]
# Source text: (§1) As βTrCP was His tagged, an NTA sensor chip was used. This sensor chip has a dextran surface matrix with immobilized nitrilotriacetic acid (NTA) which provides a means of capturing polyHis-tagged proteins through Nickel chelation. It was hoped that addition of Ni⁺ would orient the protein in a specific (and hopefully active) manner as it is covalently immobilised via amine coupling. Addition of EDC:NHS (N-ethyl-N′-(3-[…])-carbodiimide:N-hydroxysuccinimide) converts carboxyl groups on the dextran sensor chip surface to succinamide esters which readily form covalent bonds with primary amines. Each chip contains four flow cells (each a separate surface) which means that compounds/peptides can be passed over different forms of βTrCP and a reference surface simultaneously. If binding to βTrCP is occurring, responses should be the same (accounting for differences in density of surface etc) on each surface.
# (§2) Small molecule/peptide samples to be assayed for binding to βTrCP surfaces, were provided as 10 mM stocks in 100% DMSO. All samples were tested in running buffer composed of 10 mM HEPES pH 7.4, 150 mM NaCl, 50 μM EDTA, 0.005% p20, and 1% DMSO. Serial dilutions were made using running buffer. […] KD values calculated from binding curves from both surfaces (with or without the GST moiety) were averaged to produce apparent KD's for each sample tested.
row,Binder,Kd
1,Tos-[dD]EG[Phe(3-Cl)]W[E(Me)]-NH2 (also called UBP033) [Ts-dEGF(3Cl)WE(Me)-NH2],0.0216 µM

# Target: T1, HisβTrCP/Skp1 and HisβTrCP/GSTSkp1 …
# Test: SPR, Biacore T200, βTrCP/Skp1 immobilised
# Source text: as §1
# Small molecule/peptide samples to be assayed for binding to βTrCP surfaces, were provided as 10 mM stocks in 100% DMSO. All samples were tested in running buffer composed of 10 mM HEPES pH 7.4, 150 mM NaCl, 50 μM EDTA, 0.005% p20, and 1% DMSO. Serial dilutions were made using running buffer. Samples were tested over varying concentrations up to a maximum of 100 μM. Two methods of measuring the SPR response were employed: single cycle kinetics which measures the response across different concentrations of sample within a single cycle (no regeneration of surface) and a method that measures the response at a given concentration in each cycle and includes a regeneration wash after each sample injection. The regeneration solution used was the same as running buffer, but included 500 mM NaCl. Data was fitted using Biacore T200 evaluation software. KD values calculated from binding curves from both surfaces (with or without the GST moiety) were averaged to produce apparent KD's for each sample tested.
row,Binder,Kd
1,Tos-[dD]EG[Phe(3-Cl)]W[E(Me)]-NH2 (also called UBP033) [Ts-dEGF(3Cl)WE(Me)-NH2],0.047 µM
2,B1,0.154 µM
3,B2,0.048 µM
4,{4‑(BuO)‑PhSO2}-[dD]EG[Phe(3-F)]WE-NH2 (also called UBP030) [4-(BuO)-PhSO2-dEGF(3F)WE-NH2],0.767 µM

# Target: T2, βTrCP (tag cleaved and complexed with Skp1) (UniProt Q9Y297 175-605; P63208 1-163)
# T2 construct: Protein of the fluorescence polarisation assay, 0.035 µM; also called Beta Transducin repeat-containing protein; βTrCP/Skp1
# Test: FP competition, 10 nM fluorescein-IκB peptide on βTrCP/Skp1
# Procedure: Binding of the compounds to βTrCP was assessed using a fluorescence polarisation (FP) binding assay. The FP assay is an in vitro binding assay using a fluorescein-tagged IkB peptide at 10 nM to mimic substrate binding to βTrCP, and was performed as described above.
# Four sequences were selected for re-synthesis and testing in the FP assay, which was performed as described above along with 4 negative controls.
row,Binder,IC50
1,Phth-EGFFE-NH2 [Phth-EGFFE-NH2],10.9 µM
2,B3,3.18 µM

# Target: T3, βTrCP (tag cleaved and complexed with Skp1) (UniProt Q9Y297 175-605; P63208 1-163)
# T3 construct: Protein of the FP assay (0.035 µM); also called Beta Transducin repeat-containing protein; βTrCP/Skp1
# Test: FP competition vs fluorescein-IκB peptide
row,Binder,IC50
1,Tos-[dD]EG[Phe(3-Cl)]W[E(Me)]-NH2 (also called UBP033) [Ts-dEGF(3Cl)WE(Me)-NH2],0.017 µM
2,B1,0.01 µM
3,B2,0.017 µM
4,{4‑(BuO)‑PhSO2}-[dD]EG[Phe(3-F)]WE-NH2 (also called UBP030) [4-(BuO)-PhSO2-dEGF(3F)WE-NH2],0.056 µM

# Target: T1, HisβTrCP/Skp1 and HisβTrCP/GSTSkp1 …
# Test: SPR (Biacore T200), single cycle run up to 1e-6 M, steady-state fit of the run shown; Rmax 4.264 RU, Chi² 0.00601 RU² [B]
# Source text: as §1, §2
row,Binder,Kd
1,B1,0.0808 µM

# Target: T3, βTrCP (tag cleaved and complexed with …)
# Test: FP competition vs fluorescein-IκB peptide
# Remark: another data set of the same source
row,Binder,IC50
1,B4,81 µM
2,Suc-[βE]GYFE-NH2 (not fully specified; printed as Suc-βE-GYFE-NH2) [Suc-βE-GYFE-NH2],30 µM
3,B5,46 µM
4,B6,44 µM
5,B7,49 µM
6,Suc-EGYF-NH2 [Suc-EGYF-NH2],31 µM
7,B8,91 µM
8,B9,91 µM
9,B10,71 µM
10,Suc-EG[1Nal][Phe(4-NO2)]E-NH2 [Suc-EG-1Nal-F(4NO2)-E-NH2],68 µM
11,Suc-EG[1Nal][Tyr(Me)]E-NH2 [Suc-EG-1Nal-Y(Me)-E-NH2],5.4 µM
12,B11,38 µM and 39 µM
13,Glutaryl-EGFFE-NH2 [Ga-EGFFE-NH2],65 µM
14,B12,71 µM
15,B13,78 µM

# Target: Skp2 (UniProt Q13309 1-424, limits assumed)
# Sequence (Q13309 whole entry): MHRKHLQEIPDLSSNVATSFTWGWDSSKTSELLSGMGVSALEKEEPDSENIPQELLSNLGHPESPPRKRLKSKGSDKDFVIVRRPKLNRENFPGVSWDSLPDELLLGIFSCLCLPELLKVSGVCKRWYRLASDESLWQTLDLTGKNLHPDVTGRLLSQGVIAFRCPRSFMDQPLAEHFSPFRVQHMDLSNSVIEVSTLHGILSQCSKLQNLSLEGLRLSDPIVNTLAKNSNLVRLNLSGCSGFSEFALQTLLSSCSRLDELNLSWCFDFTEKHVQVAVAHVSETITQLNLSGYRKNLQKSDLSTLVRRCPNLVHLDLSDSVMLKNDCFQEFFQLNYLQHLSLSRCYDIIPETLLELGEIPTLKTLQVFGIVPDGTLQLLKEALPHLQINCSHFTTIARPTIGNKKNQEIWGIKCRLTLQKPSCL
# Test: cell-based or functional assay
Binder,% Inhibition Skp2 @ 10 µM,% Inhibition Skp2 @ (100 µM)
Tos-[dD]EG[Phe(3-Cl)]W[E(Me)]-NH2 (also called UBP033) [Ts-dEGF(3Cl)WE(Me)-NH2],0%,10%
B1,0%,0%
B2,7%,12%
{4‑(BuO)‑PhSO2}-[dD]EG[Phe(3-F)]WE-NH2 (also called UBP030) [4-(BuO)-PhSO2-dEGF(3F)WE-NH2],0%,13%

# Target: Fbw7 (UniProt Q969H0 263-707, limits assumed)
# Sequence (Q969H0 263-707 limits assumed): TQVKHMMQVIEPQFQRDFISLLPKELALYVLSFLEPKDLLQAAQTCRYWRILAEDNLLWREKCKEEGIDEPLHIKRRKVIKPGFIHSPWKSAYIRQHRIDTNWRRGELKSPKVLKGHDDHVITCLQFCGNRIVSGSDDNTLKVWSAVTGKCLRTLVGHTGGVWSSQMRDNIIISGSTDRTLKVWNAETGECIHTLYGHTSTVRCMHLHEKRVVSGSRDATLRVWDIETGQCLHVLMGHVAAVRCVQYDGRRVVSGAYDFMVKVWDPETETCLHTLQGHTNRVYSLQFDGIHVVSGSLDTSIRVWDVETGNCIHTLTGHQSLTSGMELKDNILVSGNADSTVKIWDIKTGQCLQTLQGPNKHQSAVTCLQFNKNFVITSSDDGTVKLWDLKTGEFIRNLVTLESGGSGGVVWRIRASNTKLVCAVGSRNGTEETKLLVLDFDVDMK
# Test: cell-based or functional assay
Binder,% Inhibition Fbw7 @ 10 µM,% Inhibition Fbw7 @ (100 µM)
Tos-[dD]EG[Phe(3-Cl)]W[E(Me)]-NH2 (also called UBP033) [Ts-dEGF(3Cl)WE(Me)-NH2],7%,11%
B1,8%,6%
B2,0%,18%
{4‑(BuO)‑PhSO2}-[dD]EG[Phe(3-F)]WE-NH2 (also called UBP030) [4-(BuO)-PhSO2-dEGF(3F)WE-NH2],7%,12%

# Target: T3, βTrCP (tag cleaved and complexed with …)
# Test: FP competition vs fluorescein-IκB peptide
# Remark: another data set of the same source
row,Binder,IC50
1,Tos-[dD]EG[Phe(3-Cl)]W[E(Me)]-NH2 (also called UBP033) [Ts-dEGF(3Cl)WE(Me)-NH2],0.017 µM
2,B1,0.01 µM
3,B2,0.017 µM
4,{4‑(BuO)‑PhSO2}-[dD]EG[Phe(3-F)]WE-NH2 (also called UBP030) [4-(BuO)-PhSO2-dEGF(3F)WE-NH2],0.056 µM

# Target: T1, HisβTrCP/Skp1 and HisβTrCP/GSTSkp1 …
# Test: SPR (Biacore T200), single cycle run up to 1e-6 M, steady-state fit of the run shown; Rmax 3.459 RU, Chi² 0.00452 RU² [C]
# Source text: as §1, §2
row,Binder,Kd
1,B2,0.0498 µM
